This passage reports stoichiometry N results from publication PMC8318374.

In this assay the target is GFP-CC-tet-KLC1E^CTD (de novo-designed coiled-coil tetramer between GFP and KLC1E^CTD) (mouse). Briefly: cross-linking.

A word on the stoichiometry N: it is a count of units in the complex or per binding partner. With “GFP-CC-tet-KLC1E^CTD (de novo-designed coiled-coil tetramer between GFP and KLC1E^CTD)”, the stoichiometry N was determined as 4.
